# Measurements taken from patent US20190233477A1.
# What was measured:
# [1] = molecular target: NRPS N-(5-amino-5-carboxypentanoyl)-L-cysteinyl-D-valine synthase PcbAB (Penicillium chrysogenum)
# [2] = molecular target: NRPS Pc21g12630 protein ChyA (Penicillium chrysogenum)
# [3] = molecular target: NRPS Roquefortine/meleagrin synthesis protein A RoqA (Penicillium chrysogenum)
# Sequence of MbtH-like protein Tcp13 from the teicoplanin biosynthesis cluster from Actinoplanes teichomyceticus (chain): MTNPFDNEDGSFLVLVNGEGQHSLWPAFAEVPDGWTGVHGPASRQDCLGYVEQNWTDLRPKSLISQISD
# Sequence of MbtH-like homologue identified in the Veg biosynthesis cluster obtainable from an uncultured soil bacterium, called VEG8 (chain): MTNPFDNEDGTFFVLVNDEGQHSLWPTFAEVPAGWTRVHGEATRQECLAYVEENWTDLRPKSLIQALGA
substance,measurement,setting,value
"MbtH-like homologue SCO0489 from the calcium dependent antibiotic (CDA) biosynthesis cluster from Streptomyces coelicolor, called CDAI","relative productivity of LLD-ACV (penicillin cluster), day 5, strain DS47274, transformant 9-5, LC/MS, untransformed strain set to 1.0 (fold of the untransformed strain (1.0))",[1],12.5
same,"relative productivity of Chrysogenin 12 (chrysogenin cluster), day 5, strain DS47274, transformant 9-4, LC/MS, untransformed strain set to 1.0 (fold of the untransformed strain (1.0))",[2],413
same,"relative productivity of HTD (roquefortine cluster), day 2, strain DS47274, transformant 9-5, LC/MS, untransformed strain set to 1.0 (fold of the untransformed strain (1.0))",[3],4.48
"MbtH-like homologue from the complestatine biosynthesis cluster from Streptomyces lavendulae, called COM","relative productivity of LLD-ACV (penicillin cluster), day 5, strain DS47274, transformant 7-3, LC/MS, untransformed strain set to 1.0 (fold of the untransformed strain (1.0))",[1],22.7
same,"relative productivity of Chrysogenin 12 (chrysogenin cluster), day 5, strain DS47274, transformant 7-3, LC/MS, untransformed strain set to 1.0 (fold of the untransformed strain (1.0))",[2],317
same,"relative productivity of HTD (roquefortine cluster), day 2, strain DS47274, transformant 8-4, LC/MS, untransformed strain set to 1.0 (fold of the untransformed strain (1.0))",[3],2.32
"MbtH-like homologue identified in the Teg biosynthesis cluster obtainable from an uncultured soil bacterium, called TEG","relative productivity of LLD-ACV (penicillin cluster), day 5, strain DS47274, transformant 11-5, LC/MS, untransformed strain set to 1.0 (fold of the untransformed strain (1.0))",[1],10.9
same,"relative productivity of Chrysogenin 12 (chrysogenin cluster), day 5, strain DS47274, transformant 11-5, LC/MS, untransformed strain set to 1.0 (fold of the untransformed strain (1.0))",[2],266
same,"relative productivity of HTD (roquefortine cluster), day 2, strain DS47274, transformant 11-5, LC/MS, untransformed strain set to 1.0 (fold of the untransformed strain (1.0))",[3],9.35
"MbtH-like homologue identified in the Veg biosynthesis cluster obtainable from an uncultured soil bacterium, called VEG8","relative productivity of LLD-ACV (penicillin cluster), day 5, strain DS47274, transformant 12-4, LC/MS, untransformed strain set to 1.0 (fold of the untransformed strain (1.0))",[1],2.32
same,"relative productivity of Chrysogenin 12 (chrysogenin cluster), day 5, strain DS47274, transformant 12-4, LC/MS, untransformed strain set to 1.0 (fold of the untransformed strain (1.0))",[2],189
same,"relative productivity of HTD (roquefortine cluster), day 2, strain DS47274, transformant 12-4, LC/MS, untransformed strain set to 1.0 (fold of the untransformed strain (1.0))",[3],2.9
MbtH-like protein Tcp13 from the teicoplanin biosynthesis cluster from Actinoplanes teichomyceticus,"relative productivity of LLD-ACV (penicillin cluster), day 5, strain DS47274, transformant 10-2, LC/MS, untransformed strain set to 1.0 (fold of the untransformed strain (1.0))",[1],16.1
same,"relative productivity of Chrysogenin 12 (chrysogenin cluster), day 5, strain DS47274, transformant 10-5, LC/MS, untransformed strain set to 1.0 (fold of the untransformed strain (1.0))",[2],465
same,"relative productivity of HTD (roquefortine cluster), day 2, strain DS47274, transformant 10-2, LC/MS, untransformed strain set to 1.0 (fold of the untransformed strain (1.0))",[3],2.64
